These results are taken from patent EP0440303A1 (PROBICOM RESEARCH B.V., priority 1990, dated 1991).

Data set [1] addresses T1, tripeptidase of L.lactis subsp. cremoris Wg2 (Lactococcus lactis subsp. cremoris, UniProt P0C2T7).
T1 sequence (P0C2T7 1-413): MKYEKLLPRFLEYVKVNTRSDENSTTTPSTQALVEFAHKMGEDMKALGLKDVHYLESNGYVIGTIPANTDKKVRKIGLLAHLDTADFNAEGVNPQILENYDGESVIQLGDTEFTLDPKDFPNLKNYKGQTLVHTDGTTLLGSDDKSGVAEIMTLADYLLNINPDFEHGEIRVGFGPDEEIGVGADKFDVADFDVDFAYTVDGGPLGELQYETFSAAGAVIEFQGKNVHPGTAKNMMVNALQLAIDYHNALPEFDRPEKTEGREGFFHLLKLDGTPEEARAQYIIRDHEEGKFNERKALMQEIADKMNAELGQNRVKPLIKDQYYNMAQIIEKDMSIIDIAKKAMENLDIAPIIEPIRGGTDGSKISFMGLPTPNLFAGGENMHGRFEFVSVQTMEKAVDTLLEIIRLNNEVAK
Kind of data set: biochemical. The settings on record: read-out: inhibition of the enzyme activity.

Substrate in data set [2]: CC(C)C[C@H](NC(=O)[C@H](CC(C)C)NC(=O)[C@@H](N)CC(C)C)C(=O)O
Put plainly: Determination of kinetic parameters for leu3 hydrolysis (coupled enzyme reaction). To be noted: other: leu₃ as substrate, 30°C. The format is biochemical, L.lactis subsp. cremoris Wg2.

For `O=C(O)CN(CCN(CC(=O)O)CC(=O)O)CC(=O)O` [EDTA], the inhibition at 200 µM in data set [1] was found to be 79%.

B1: tripeptidase of L.lactis subsp. cremoris Wg2 (Lactococcus cremoris) (protein)
chain: MKYEKLLPRFLEYVKVNTRSDENSTTTPSTQALVEFAHKMGEDMKALGLKDVHYLESNGYVIGTIPANTDKKVRKIGLLAHLDTADFNAEGVNPQILENYDGESVIQLGDTEFTLDPKDFPNLKNYKGQTLVHTDGTTLLGSDDKSGVAEIMTLADYLLNINPDFEHGEIRVGFGPDEEIGVGADKFDVADFDVDFAYTVDGGPLGELQYETFSAAGAVIEFQGKNVHPGTAKNMMVNALQLAIDYHNALPEFDRPEKTEGREGFFHLLKLDGTPEEARAQYIIRDHEEGKFNERKALMQEIADKMNAELGQNRVKPLIKDQYYNMAQIIEKDMSIIDIAKKAMENLDIAPIIEPIRGGTDGSKISFMGLPTPNLFAGGENMHGRFEFVSVQTMEKAVDTLLEIIRLNNEVAK
notes: the resulting supernatant (i.e. cell-free extract) was used for enzyme isolation; made in house; host or cells: Natural producer L. lactis subsp. cremoris Wg2 (proteinase-negative variant), not recombinant; Purified by DEAE-Sephacel, Phenyl-Sepharose, Sephadex G-100 SF and HPLC TSK G3000 SW
For the molecule B1, in data set [2], the Km stood at 150 µM, the Vmax was found to be 151 µmol/min.mg protein and the kcat worked out at 264 s⁻¹.
